Assay results published in US20230027739A1, “ANTIGEN-BINDING AND ANTIGEN D[…]” (Entrada Therapeutics, Inc., priority 2021, published 2023).

Biological target: KRas in human cancer cell lines with KRas mutations (HCT-116, SW480, LS180, LS174T) (human), P01116
Test: cell-based or functional assay

B1: K19-Cys-EEV12 (designed binder)
chain: MHHHHHHENLYFQGDLGKKLLEAARAGQDDEVRILMANGADVNASDRWGWTPLHLAAWWGHLEIVEVLLKRGADVSAADLHGQSPLHLAAMVGHLEIVEVLLKYGADVNAKDTMGATPLHLAARSGHLEIVEELLKNGADMNAQDKFGKTTFDISTDNGNEDLAEILQKLC
modifications: not checked
IC50 of cell viability (CellTiter-Glo, 72 h) on KRas mutant cell lines: 2 to 8 µM
